Usually Kd stands for the concentration at which binding is half-saturated. A lower Kd goes with a tighter complex.

Bounds are passed on as bounds.

This passage reports Kd results from paper doi:10.1101/2021.02.03.429507.

Test [1] deals with Core-binding region peptide of E-cad, AlexaFluor 488 at the C-terminus (mouse). In words: two-focus FCS.
Test [2] addresses Core-binding region peptide of E-cad, AlexaFluor 488 at the N-terminus (mouse). Briefly: two-focus FCS.
In test [3] the target is E-cad construct A (cytoplasmic tail of mouse E-cadherin, FRET labels on the N-terminal segment) (mouse) (UniProt P09803). In words: single-molecule FRET.
In test [4] the target is E-cad construct B (cytoplasmic tail of mouse E-cadherin, FRET labels on the central segment) (mouse) (UniProt P09803). In words: single-molecule FRET.
For test [5], the target named is E-cad construct C (cytoplasmic tail of mouse E-cadherin, FRET labels on the C-terminal segment) (mouse) (UniProt P09803). In words: single-molecule FRET.

For the substance “Full-length murine beta-catenin (from UniProt Q02248 1-781) (natural protein)”, the Kd in test [1] is > 1000 nM; in test [2] it was > 1000 nM; in test [3], 4 nM; in test [4], 4 nM; in test [5], 4 nM.
